According to the supplement of paper PMC11246515:
± gives the standard deviation of the averaged measurements.

Test: total protein half-life in vivo (active degradation + dilution); higher = more stable protein
[1] = E. coli NCM3722 delta-clpP delta-lon delta-hslV, growth: N-lim chemostat, doubling time 6 h
[2] = E. coli NCM3722 delta-clpP, growth: N-lim chemostat, doubling time 6 h
[3] = E. coli NCM3722 delta-hslV, growth: N-lim chemostat, doubling time 6 h
[4] = E. coli NCM3722 delta-lon, growth: N-lim chemostat, doubling time 6 h
[5] = E. coli NCM3722 delta-smpB, growth: N-lim chemostat, doubling time 6 h
[6] = wild type E. coli NCM3722, growth: C-lim chemostat, doubling time 3 h
[7] = wild type E. coli NCM3722, growth: C-lim chemostat, doubling time 6 h
[8] = wild type E. coli NCM3722, growth: C-lim chemostat, doubling time 12 h
[9] = wild type E. coli NCM3722, growth: N-lim chemostat, doubling time 6 h
[10] = wild type E. coli NCM3722, growth: N-lim chemostat, doubling time 12 h
[11] = wild type E. coli NCM3722, growth: P-lim chemostat, doubling time 6 h
[12] = wild type E. coli NCM3722, growth: P-lim chemostat, doubling time 12 h

Sequence	total protein half-life in vivo [1] [h]	total protein half-life in vivo [2] [h]	total protein half-life in vivo [3] [h]	total protein half-life in vivo [4] [h]	total protein half-life in vivo [5] [h]	total protein half-life in vivo [6] [h]	total protein half-life in vivo [7] [h]	total protein half-life in vivo [8] [h]	total protein half-life in vivo [9] [h]	total protein half-life in vivo [10] [h]	total protein half-life in vivo [11] [h]	total protein half-life in vivo [12] [h]
MKIKAVGAYSAKQPLEPMDITRREPGPNDVKIEIAYCGVCHSDLHQVRSEWAGTVYPCVPGHEIVGRVVAVGDQVEKYAPGDLVGVGCIVDSCKHCEECEDGLENYCDHMTGTYNSPTPDEPGHTLGGYSQQIVVHERYVLRIRHPQEQLAAVAPLLCAGITTYSPLRHWQAGPGKKVGVVGIGGLGHMGIKLAHAMGAHVVAFTTSEAKREAAKALGADEVVNSRNADEMAAHLKSFDFILNTVAAPHNLDDFTTLLKRDGTMTLVGAPATPHKSPEVFNLIMKRRAIAGSMIGGIPETQEMLDFCAEHGIVADIEMIRADQINEAYERMLRGDVKYRFVIDNRTLTD	4.84 ± 0.2	4.8 ± 0.18	4.92 ± 0.16	5.05 ± 0.38	4.66 ± 0.61	3.225 ± 0.021	5.86 ± 0.58	11 ± 0.91	5.04 ± 0.17	8.89 ± 0.21	6.23 ± 0.59	12 ± 0.78
MRVLVTGGSGYIGSHTCVQLLQNGHDVIILDNLCNSKRSVLPVIERLGGKHPTFVEGDIRNEALMTEILHDHAIDTVIHFAGLKAVGESVQKPLEYYDNNVNGTLRLISAMRAANVKNFIFSSSATVYGDQPKIPYVESFPTGTPQSPYGKSKLMVEQILTDLQKAQPDWSIALLRYFNPVGAHPSGDMGEDPQGIPNNLMPYIAQVAVGRRDSLAIFGNDYPTEDGTGVRDYIHVMDLADGHVVAMEKLANKPGVHIYNLGAGVGNSVLDVVNAFSKACGKPVNYHFAPRREGDLPAYWADASKADRELNWRVTRTLDEMAQDTWHWQSRHPQGYPD	6.39 ± 1.9	4.762 ± 0.027	4.54 ± 0.37	5 ± 0.24	5.61 ± 1.2	3.11 ± 0.27	5.62 ± 0.26	11.6 ± 0.67	4.53 ± 0.95	13.7 ± 1.8	5.91 ± 0.51	11.7 ± 0.53
MFDYILSLGGTVFVPIIMIVIGLIFRIPWLQAIKAGVTVGIGFVGMGLVIVMAIDSLSPPIKVMIERFGLALHVFDVGAGPASGVGYATAIGAMIIPVIFLLNVAMLVTRLTKTMNVDIYNYWHYAITGTVVQLMTGSLIYGVLGAICHAALSLKMADWTAKRVQNIVGLEGISIPQGYGSSSVPLFVLLDAIYEKIPFMKGRNIDAQEIQKRYGMVGDPVIIGVVLGLIFGLAAGEGFKGCASLMITVAAIMVLFPRMIRLIVEGLLPISDGARKFFQKYFKGREVYIGLDTAVTLGHPTTIAVGLLLIPIMLILASILPGNKVLPLADLPVAPFFICMATVIHRGDLVRTLISGVIVMITVLLIATQFAPYFTEMALKGGFSFAGESAQISALSVGNMFGWSISELMSLGIIGVVVAVGIVASVVLFLRKRELSE					7.4		6 ± 0.68					
MIEFDNLTYLHGKPQGTGLLKANPEDFVVVEDLGFEPDGEGEHILVRILKNGCNTRFVADALAKFLKIHAREVSFAGQKDKHAVTEQWLCARVPGKEMPDLSAFQLEGCQVLEYARHKRKLRLGALKGNAFTLVLREVSNRDDVEQRLIDICVKGVPNYFGAQRFGIGGSNLQGAQRWAQTNTPVRDRNKRSFWLSAARSALFNQIVAERLKKADVNQVVDGDALQLAGRGSWFVATTEELAELQRRVNDKELMITAALPGSGEWGTQREALAFEQAAVAAETELQALLVREKVEAARRAMLLYPQQLSWNWWDDVTVEIRFWLPAGSFATSVVRELINTTGDYAHIAE	5.52 ± 0.077	5.85 ± 0.93	5.53 ± 0.64	6.03 ± 0.79	5.8 ± 0.21	3.11 ± 0.11	5.78 ± 0.067	12.8 ± 1.1	4.93 ± 0.21	9.75 ± 0.26	5.99 ± 0.14	12.6 ± 0.88
MEMYFKRMKDEWTGLVEQADPPIRAKAAEIAVAHAHYLSIEFYRIVRIDPHAEEFLSNEQVERQLKSAMERWIINVLSAQVDDVERLIQIQHTVAEVHARIGIPVEIVEMGFRVLKKILYPVIFSSDYSAAEKLQVYHFSINSIDIAMEVMTRAFTFSDSSASKEDENYRIFSLLENAEEEKERQIASILSWEIDIIYKILLDSDLGSSLPLSQADFGLWFNHKGRHYFSGIAEVGHISRLIQDFDGIFNQTMRNTRNLNNRSLRVKFLLQIRNTVSQIITLLRELFEEVSRHEVGMDVLTKLLNRRFLPTIFKREIAHANRTGTPLSVLIIDVDKFKEINDTWGHNTGDEILRKVSQAFYDNVRSSDYVFRYGGDEFIIVLTEASENETLRTAERIRSRVEKTKLKAANGEDIALSLSIGAAMFNGHPDYERLIQIADEALYIAKRRGRNRVELWKASL [P0AA89]	6.71 ± 1.4	3.48 ± 0.94	2.854 ± 0.0076	4.26 ± 0.88	2.81 ± 0.03	1.66 ± 0.26	3.16 ± 0.017	4.49 ± 0.37	3.21 ± 0.42	4.83 ± 0.27	1.49 ± 0.32	3.09 ± 0.069
MANSSSRYSVLTAAHWGPMLVETDGETVFSSRGALATGMENSLQSAVRDQVHSNTRVRFPMVRKGFLASPENPQGIRGQDEFVRVSWDEALDLIHQQHKRIREAYGPASIFAGSYGWRSNGVLHKASTLLQRYMALAGGYTGHLGDYSTGAAQAIMPYVVGGSEVYQQQTSWPLVLEHSDVVVLWSANPLNTLKIAWNASDEQGLSYFSALRDSGKKLICIDPMRSETVDFFGDKMEWVAPHMGTDVALMLGIAHTLVENGWHDEAFLARCTTGYAVFASYLLGESDGIAKTAEWAAEICGVGAAKIRELAAIFHQNTTMLMAGWGMQRQQFGEQKHWMIVTLAAMLGQIGTPGGGFGLSYHFANGGNPTRRSAVLSSMQGSLPGGCDAVDKIPVARIVEALENPGGAYQHNGMNRHFPDIRFIWWAGGANFTHHQDTNRLIRAWQKPELVVISECFWTAAAKHADIVLPATTSFERNDLTMTGDYSNQHLVPMKQVVPPRYEARNDFDVFAELSERWEKGGYARFTEGKSELQWLETFYNVARQRGASQQVELPPFAEFWQANQLIEMPENPDSERFIRFADFCRDPLAHPLKTASGKIEIFSQRIADYGYPDCPGHPMWLEPDEWQGNAEPEQLQVLSAHPAHRLHSQLNYSSLRELYAVANREPVTIHPDDAQERGIQDGDTVRLWNARGQILAGAVISEGIKPGVICIHEGAWPDLDLTADGICKNGAVNVLTKDLPSSRLGNGCAGNTALAWLEKYNGPELTLTAFEPPASS	4.73 ± 0.25	3.43 ± 0.21	3.62 ± 0.17	4.25 ± 0.41	3.293 ± 0.026	2.4 ± 0.26	4.57 ± 0.6	7.73 ± 0.2	3.56 ± 0.24	5.57 ± 0.67	3.55 ± 0.4	6.319 ± 0.0081
